The target of one assay is Dnmt3a (Homo sapiens) (UniProt Q9Y6K1).
Assay: not given
As to conditions: cited from earlier work.
As for MPP8 chromodomain (from UniProt Q99549), the Kd (usually the concentration at which binding is half-saturated) was 12000 nM.

Another assay deals with MPP8 chromodomain (CD, residues 55-116) (human) (UniProt Q99549). Nature of the assay: ITC; 750 uM peptide in the syringe titrated into 50 uM MPP8 CD in the cell; 50 mM HEPES pH 7.4, 0.1 M NaCl, 0.5 mM TCEP, 25 °C; single-site model.
Settings: not given
A general note: Isothermal titration calorimetry measures the heat released or taken up as one component is titrated into another.
For “ATF7IP N-terminal tail peptide trimethylated at lysine 16”, the Kd came out at 193 nM. Substance G9a peptide trimethylated at K185 registered a Kd of 1310 nM. For the substance “GLP peptide residues 199-211 with lysine 205 trimethylated (from UniProt Q9H9B1 199-211)”, the Kd was 337 nM. On to “Histone H3 peptide trimethylated at lysine 9”, for which the Kd was 769 nM. As for “Histone H3 peptide trimethylated at lysine 27”, the Kd was over 50000 nM. Substance SETDB1 peptide trimethylated at K1170 had a Kd of 1550 nM. SETDB1 peptide trimethylated at K1178 registered a Kd of over 50000 nM.

Values taken from paper PMC7618375, “Structure and Methyl-lysine Binding Selectivity of the HUSH Complex Subunit MPP8” (Journal of molecular biology, 2024).
